Data taken from patent publication US8367390B2, “Galactanase variants” (Novozymes A/S, priority 2002, dated 2013).

Assay: Activity with ONPG, release of o-nitrophenol (ONP) at 405 nm
Assay type: biochemical
Description: The activity of HIGAL and MTGAL with ONPG was tested by mixing 200 microliters (normally 5.5 mg/ml) ONPG in 50 mM sodium acetate, 1 mM CaCl2, 0.01% Triton X-100, pH 6.5 with 25 microliters galactanase (normally 1 mg/ml) in the well of a microtiter plate. Release of o-nitrophenol (ONP) was measured at room temperature at 405 nm every 10 seconds normally for 30 min on a SpectraMaxPlus (Molecular Devices). Effects on the observed release of ONP was studied with varied enzyme concentration, ONPG concentration and with addition of galactose (Gal), beta-1,4-galactobiose (Gal2) (Megazyme), beta-1,4-galactotriose (Gal3), beta-1,4-galactotetraose (Gal4), glucose (Glu), arabinose (Ara), galacturonic acid (GalA), maltose (Mal) or maltotriose (Mal3).
In Tables 8-11 below, incubation times required to increase the observed absorbance at 405 nm by given amounts are listed. Cells marked ‘n.r.’ indicate that the increase in absorbance was not reached in the experiment. In general, the initial increase in absorbance at 405 nm was very slow, but after a lag phase the rate of ONP release often increased drastically—often approximately exponentially. The most likely explanation for the observed kinetics is that ONPG reacts with the enzyme to give an enzyme-galactosyl intermediate which hydrolyses very slowly. Instead, the Gal of the intermediate is released by transglycosylation, initially with ONPG or added sugar as acceptor. In cases where the rate of ONP release increases, these transglycosylation products are even better acceptors than the initial ones. […] More likely, Gal inhibits the subsequent transglycosylation, which requires binding of ONPG to the +1 and +2 subsites, e.g., by binding to the +2 subsite. With 50 mg/ml Gal added (results not shown) release of ONP was even slower with only insignificant increase of absorbance at 405 nm in 30 min.

[1] = Table 8, enzyme 28 μg/ml, ONPG 5 mg/ml, no sugar
[2] = Table 8, enzyme 55 μg/ml, ONPG 5 mg/ml, Gal 5 mg/ml
[3] = Table 8, enzyme 55 μg/ml, ONPG 5 mg/ml, no sugar
[4] = Table 8, enzyme 110 μg/ml, ONPG 5 mg/ml, Gal 5 mg/ml
[5] = Table 8, enzyme 110 μg/ml, ONPG 5 mg/ml, no sugar
[6] = Table 9, enzyme 110 μg/ml, ONPG 1.25 mg/ml
[7] = Table 9, enzyme 110 μg/ml, ONPG 2.5 mg/ml
[8] = Table 9, enzyme 110 μg/ml, ONPG 5 mg/ml
[9] = Table 9, enzyme 110 μg/ml, ONPG 10 mg/ml
[10] = Table 10, enzyme 110 μg/ml, ONPG 5 mg/ml, Gal2 0.05 mg/ml
[11] = Table 10, enzyme 110 μg/ml, ONPG 5 mg/ml, Gal2 0.5 mg/ml
[12] = Table 10, enzyme 110 μg/ml, ONPG 5 mg/ml, Gal3 0.05 mg/ml

B1: HIGAL: GH Family 53 galactanase from Humicola insolens, SEQ ID NO: 2 (wild type parent) (protein, listed as Humicola insolens)
chain: ALQYKGVDWSSVMVEERAGVRYKNVNGQEKPLEYILAENGVNMVRQRVWVNPWDGNYNLDYNIQLARRAKAAGLGLYINFHYSDTWADPAHQTTPAGWPSDINNLAWKLYNYTLDSMNRFADAGIQVDIVSIGNEITQGLLWPLGKTNNWYNIARLLHSAAWGVKDSRLNPKPKIMVHLDNGWNWDTQNWWYTNVLSQGPFEMSDFDMMGVSFYPFYSASATLDSLRRSLNNMVSRWGKEVAVVETNWPTSCPYPRYQFPADVRNVPFSAAGQTQYIQSVANVVSSVSKGVGLFYWEPAWIHNANLGSSCADNTMFTPSGQALSSLSVFHRI
modifications: mat_peptide (1)..()
- Effect of Ara on ONP release (Ara 5 mg/ml): about three times slower ONP release
- Slowing of ONP release by addition of Gal (Gal 5 mg/ml): a factor of three
- Effect of GalA on ONP release (GalA 5 mg/ml): weak inhibitory effect
- Effect of GalA on ONP release (GalA 50 mg/ml): slows ONP release by about a factor two
- Effect of Glu on ONP release (Glu 5 mg/ml): slight inhibitory effect
- ONP release in 30 min (Glu 50 mg/ml, results not shown): < 0.02
- Effect of Mal or Mal3 on ONP release (Mal or Mal3 5 mg/ml): no significant effects on ONP release
- ONP release compared at identical enzyme dosage (Table 8): faster than MTGAL
- Time (min) to increase A405 by: 0.025 [1]: 41.4 min
- Time (min) to increase A405 by: 0.05 [1]: 46.5 min
- Time (min) to increase A405 by: 0.1 [1]: 51.0 min
- Time (min) to increase A405 by: 0.2 [1]: 56.5 min
- Time (min) to increase A405 by: 0.4 [1]: n.r.
- Time (min) to increase A405 by: 0.8 [1]: n.r.
- Time (min) to increase A405 by: 1.6 [1]: n.r.
- Time (min) to increase A405 by: 3.2 [1]: n.r.
- Time (min) to increase A405 by: 0.025 [2]: 57.0 min
- Time (min) to increase A405 by: 0.05 [2]: n.r.
- Time (min) to increase A405 by: 0.1 [2]: n.r.
- Time (min) to increase A405 by: 0.2 [2]: n.r.
- Time (min) to increase A405 by: 0.4 [2]: n.r.
- Time (min) to increase A405 by: 0.8 [2]: n.r.
- Time (min) to increase A405 by: 1.6 [2]: n.r.
- Time (min) to increase A405 by: 3.2 [2]: n.r.
- Time (min) to increase A405 by: 0.025 [3]: 20.4 min
- Time (min) to increase A405 by: 0.05 [3]: 22.9 min
- Time (min) to increase A405 by: 0.1 [3]: 25.4 min
- Time (min) to increase A405 by: 0.2 [3]: 28.0 min
- Time (min) to increase A405 by: 0.4 [3]: 30.9 min
- Time (min) to increase A405 by: 0.8 [3]: 32.0 min
- Time (min) to increase A405 by: 1.6 [3]: 35.0 min
- Time (min) to increase A405 by: 3.2 [3]: 37.9 min
- Time (min) to increase A405 by: 0.025 [4]: 32.0 min
- Time (min) to increase A405 by: 0.05 [4]: 35.7 min
- Time (min) to increase A405 by: 0.1 [4]: 41.5 min
- Time (min) to increase A405 by: 0.2 [4]: 46.7 min
- Time (min) to increase A405 by: 0.4 [4]: 52.7 min
- Time (min) to increase A405 by: 0.8 [4]: 59.0 min
- Time (min) to increase A405 by: 1.6 [4]: n.r.
- Time (min) to increase A405 by: 3.2 [4]: n.r.
- Time (min) to increase A405 by: 0.025 [5]: 9.0 min
- Time (min) to increase A405 by: 0.05 [5]: 10.3 min
- Time (min) to increase A405 by: 0.1 [5]: 11.5 min
- Time (min) to increase A405 by: 0.2 [5]: 12.7 min
- Time (min) to increase A405 by: 0.4 [5]: 13.8 min
- Time (min) to increase A405 by: 0.8 [5]: 15.0 min
- Time (min) to increase A405 by: 1.6 [5]: 15.0 min
- Time (min) to increase A405 by: 3.2 [5]: 17.7 min
- Time (min) to increase A405 by: 0.025 [6]: 28.7 min
- Time (min) to increase A405 by: 0.05 [6]: n.r.
- Time (min) to increase A405 by: 0.1 [6]: n.r.
- Time (min) to increase A405 by: 0.2 [6]: n.r.
- Time (min) to increase A405 by: 0.4 [6]: n.r.
- Time (min) to increase A405 by: 0.8 [6]: n.r.
- Time (min) to increase A405 by: 1.6 [6]: n.r.
- Time (min) to increase A405 by: 3.2 [6]: n.r.
- Time (min) to increase A405 by: 0.025 [7]: 9.7 min
- Time (min) to increase A405 by: 0.05 [7]: 11.3 min
- Time (min) to increase A405 by: 0.1 [7]: 12.7 min
- Time (min) to increase A405 by: 0.2 [7]: 14.0 min
- Time (min) to increase A405 by: 0.4 [7]: 15.5 min
- Time (min) to increase A405 by: 0.8 [7]: 17.3 min
- Time (min) to increase A405 by: 1.6 [7]: 19.5 min
- Time (min) to increase A405 by: 3.2 [7]: 22.8 min
- Time (min) to increase A405 by: 0.025 [8]: 6.0 min
- Time (min) to increase A405 by: 0.05 [8]: 8.0 min
- Time (min) to increase A405 by: 0.1 [8]: 9.2 min
- Time (min) to increase A405 by: 0.2 [8]: 10.2 min
- Time (min) to increase A405 by: 0.4 [8]: 11.3 min
- Time (min) to increase A405 by: 0.8 [8]: 12.5 min
- Time (min) to increase A405 by: 1.6 [8]: 13.8 min
- Time (min) to increase A405 by: 3.2 [8]: 15.3 min
- Time (min) to increase A405 by: 0.025 [9]: 6.3 min
- Time (min) to increase A405 by: 0.05 [9]: 7.7 min
- Time (min) to increase A405 by: 0.1 [9]: 8.8 min
- Time (min) to increase A405 by: 0.2 [9]: 10.0 min
- Time (min) to increase A405 by: 0.4 [9]: 11.2 min
- Time (min) to increase A405 by: 0.8 [9]: 12.3 min
- Time (min) to increase A405 by: 1.6 [9]: 13.5 min
- Time (min) to increase A405 by: 3.2 [9]: 14.7 min
- Initial rate (mOD/min) [10]: 2 mOD/min
- Time (min) to increase A405 by: 0.025 [10]: 5.5 min
- Time (min) to increase A405 by: 0.05 [10]: 6.8 min
- Time (min) to increase A405 by: 0.1 [10]: 8.2 min
- Time (min) to increase A405 by: 0.2 [10]: 9.5 min
- Time (min) to increase A405 by: 0.4 [10]: 10.7 min
- Time (min) to increase A405 by: 0.8 [10]: 11.8 min
- Time (min) to increase A405 by: 1.6 [10]: 13.3 min
- Time (min) to increase A405 by: 3.2 [10]: 15.2 min
- Initial rate (mOD/min) [11]: 6 mOD/min
- Time (min) to increase A405 by: 0.025 [11]: 2.7 min
- Time (min) to increase A405 by: 0.05 [11]: 3.5 min
- Time (min) to increase A405 by: 0.1 [11]: 4.8 min
- Time (min) to increase A405 by: 0.2 [11]: 6.0 min
- Time (min) to increase A405 by: 0.4 [11]: 7.2 min
- Time (min) to increase A405 by: 0.8 [11]: 8.3 min
- Time (min) to increase A405 by: 1.6 [11]: 9.7 min
- Time (min) to increase A405 by: 3.2 [11]: 11.0 min
- Initial rate (mOD/min) [12]: 40 mOD/min
- Time (min) to increase A405 by: 0.025 [12]: 0.5 min
- Time (min) to increase A405 by: 0.05 [12]: 1.0 min
- Time (min) to increase A405 by: 0.1 [12]: 1.7 min
- Time (min) to increase A405 by: 0.2 [12]: 2.3 min
- Time (min) to increase A405 by: 0.4 [12]: 3.3 min
- Time (min) to increase A405 by: 0.8 [12]: 4.8 min
- Time (min) to increase A405 by: 1.6 [12]: 6.3 min
- Time (min) to increase A405 by: 3.2 [12]: 7.7 min
